Experimental data taken from the RNAGym collection of RNA variant scans (doi:10.7554/elife.80360).

B1: Hammerhead Ribozyme (parent)
chain: ACCGGAUGUGCUUUCCGGUCUGAUGAGUCCGUGAGGACGAAACAG

Variants of: B1
Test: self-cleavage, relative activity (ratio to wild type); higher = more cleavage; co-transcriptional

Variant	self-cleavage
AGCGGAUGUGCUUUCCGGUCUGAUGAGUCCGUCAGGACGAAACAG [C2G G33C]	0.443
AGCGGAUGUGCUUUCCGGUCUGAUGAGUCCGUUAGGACGAAACAG [C2G G33U]	0.535
AGCGGAUGUGCUUUCCGGUCUGAUGAGUCCGUGAAGACGAAACAG [C2G G35A]	0.271
AGCGGAUGUGCUUUCCGGUCUGAUGAGUCCGUGACGACGAAACAG [C2G G35C]	0.339
AGCGGAUGUGCUUUCCGGUCUGAUGAGUCCGUGAUGACGAAACAG [C2G G35U]	0.272
AGCGGAUGUGCUUUCCGGUCUGAUGAGUCCGUGAGAACGAAACAG [C2G G36A]	0.3
AGCGGAUGUGCUUUCCGGUCUGAUGAGUCCGUGAGCACGAAACAG [C2G G36C]	0.336
AGCGGAUGUGCUUUCCGGUCUGAUGAGUCCGUGAGUACGAAACAG [C2G G36U]	0.325
AGCGGAUGUGCUUUCCGGUCUGAUGAGUCCGUGAGGACAAAACAG [C2G G39A]	0.342
AGCGGAUGUGCUUUCCGGUCUGAUGAGUCCGUGAGGACCAAACAG [C2G G39C]	0.289
AGCGGAUGUGCUUUCCGGUCUGAUGAGUCCGUGAGGACUAAACAG [C2G G39U]	0.268
AGCGGAUGUGCUUUCCGGUCUGAUGAGUCCGUGAGGACGAAACAA [C2G G45A]	0.349
AGCGGAUGUGCUUUCCGGUCUGAUGAGUCCGUGAGGACGAAACAC [C2G G45C]	0.331
AGCGGAUGUGCUUUCCGGUCUGAUGAGUCCGUGAGGACGAAACAU [C2G G45U]	0.335
AGCGGAAGUGCUUUCCGGUCUGAUGAGUCCGUGAGGACGAAACAG [C2G U7A]	0.364
AGCGGACGUGCUUUCCGGUCUGAUGAGUCCGUGAGGACGAAACAG [C2G U7C]	0.373
AGCGGAGGUGCUUUCCGGUCUGAUGAGUCCGUGAGGACGAAACAG [C2G U7G]	0.364
AGCGGAUGAGCUUUCCGGUCUGAUGAGUCCGUGAGGACGAAACAG [C2G U9A]	0.367
AGCGGAUGCGCUUUCCGGUCUGAUGAGUCCGUGAGGACGAAACAG [C2G U9C]	0.357

Variant	self-cleavage
AGCGGAUGGGCUUUCCGGUCUGAUGAGUCCGUGAGGACGAAACAG [C2G U9G]	0.32
AGCGGAUGUGCAUUCCGGUCUGAUGAGUCCGUGAGGACGAAACAG [C2G U12A]	0.335
AGCGGAUGUGCCUUCCGGUCUGAUGAGUCCGUGAGGACGAAACAG [C2G U12C]	0.342
AGCGGAUGUGCGUUCCGGUCUGAUGAGUCCGUGAGGACGAAACAG [C2G U12G]	0.31
AGCGGAUGUGCUAUCCGGUCUGAUGAGUCCGUGAGGACGAAACAG [C2G U13A]	0.353
AGCGGAUGUGCUCUCCGGUCUGAUGAGUCCGUGAGGACGAAACAG [C2G U13C]	0.4
AGCGGAUGUGCUGUCCGGUCUGAUGAGUCCGUGAGGACGAAACAG [C2G U13G]	0.332
AGCGGAUGUGCUUACCGGUCUGAUGAGUCCGUGAGGACGAAACAG [C2G U14A]	0.314
AGCGGAUGUGCUUCCCGGUCUGAUGAGUCCGUGAGGACGAAACAG [C2G U14C]	0.317
AGCGGAUGUGCUUGCCGGUCUGAUGAGUCCGUGAGGACGAAACAG [C2G U14G]	0.309
AGCGGAUGUGCUUUCCGGACUGAUGAGUCCGUGAGGACGAAACAG [C2G U19A]	0.294
AGCGGAUGUGCUUUCCGGCCUGAUGAGUCCGUGAGGACGAAACAG [C2G U19C]	0.308
AGCGGAUGUGCUUUCCGGGCUGAUGAGUCCGUGAGGACGAAACAG [C2G U19G]	0.275
AGCGGAUGUGCUUUCCGGUCAGAUGAGUCCGUGAGGACGAAACAG [C2G U21A]	0.314
AGCGGAUGUGCUUUCCGGUCCGAUGAGUCCGUGAGGACGAAACAG [C2G U21C]	0.329
AGCGGAUGUGCUUUCCGGUCGGAUGAGUCCGUGAGGACGAAACAG [C2G U21G]	0.331
AGCGGAUGUGCUUUCCGGUCUGAAGAGUCCGUGAGGACGAAACAG [C2G U24A]	0.476
AGCGGAUGUGCUUUCCGGUCUGACGAGUCCGUGAGGACGAAACAG [C2G U24C]	0.383
AGCGGAUGUGCUUUCCGGUCUGAGGAGUCCGUGAGGACGAAACAG [C2G U24G]	0.356

Variant	self-cleavage
AGCGGAUGUGCUUUCCGGUCUGAUGAGACCGUGAGGACGAAACAG [C2G U28A]	0.37
AGCGGAUGUGCUUUCCGGUCUGAUGAGCCCGUGAGGACGAAACAG [C2G U28C]	0.262
AGCGGAUGUGCUUUCCGGUCUGAUGAGGCCGUGAGGACGAAACAG [C2G U28G]	0.315
AGCGGAUGUGCUUUCCGGUCUGAUGAGUCCGAGAGGACGAAACAG [C2G U32A]	0.418
AGCGGAUGUGCUUUCCGGUCUGAUGAGUCCGCGAGGACGAAACAG [C2G U32C]	0.332
AGCGGAUGUGCUUUCCGGUCUGAUGAGUCCGGGAGGACGAAACAG [C2G U32G]	0.379
AUCGGAUGUGCUUUCCGGUCUGAUGAGUCCGUGAGGACGAAACAG [C2U]	1.17
AUCGGCUGUGCUUUCCGGUCUGAUGAGUCCGUGAGGACGAAACAG [C2U A6C]	0.429
AUCGGGUGUGCUUUCCGGUCUGAUGAGUCCGUGAGGACGAAACAG [C2U A6G]	0.927
AUCGGUUGUGCUUUCCGGUCUGAUGAGUCCGUGAGGACGAAACAG [C2U A6U]	0.865
AUCGGAUGUGCUUUCCGGUCUGCUGAGUCCGUGAGGACGAAACAG [C2U A23C]	0.558
AUCGGAUGUGCUUUCCGGUCUGGUGAGUCCGUGAGGACGAAACAG [C2U A23G]	0.385
AUCGGAUGUGCUUUCCGGUCUGUUGAGUCCGUGAGGACGAAACAG [C2U A23U]	0.415
AUCGGAUGUGCUUUCCGGUCUGAUGCGUCCGUGAGGACGAAACAG [C2U A26C]	0.514
AUCGGAUGUGCUUUCCGGUCUGAUGGGUCCGUGAGGACGAAACAG [C2U A26G]	0.34
AUCGGAUGUGCUUUCCGGUCUGAUGUGUCCGUGAGGACGAAACAG [C2U A26U]	0.89
AUCGGAUGUGCUUUCCGGUCUGAUGAGUCCGUGCGGACGAAACAG [C2U A34C]	0.933
AUCGGAUGUGCUUUCCGGUCUGAUGAGUCCGUGGGGACGAAACAG [C2U A34G]	0.841
AUCGGAUGUGCUUUCCGGUCUGAUGAGUCCGUGUGGACGAAACAG [C2U A34U]	0.972
